Test results taken from PMC4751435 (2016).

B1: luciferase-FOXP2 (wild-type, full-length 1-715) [human] / YFP-PIAS3 [human] (parent complex)
chain 1: MMQESATETISNSSMNQNGMSTLSSQLDAGSRDGRSSGDTSSEVSTVELLHLQQQQALQAARQLLLQQQTSGLKSPKSSDKQRPLQVPVSVAMMTPQVITPQQMQQILQQQVLSPQQLQALLQQQQAVMLQQQQLQEFYKKQQEQLHLQLLQQQQQQQQQQQQQQQQQQQQQQQQQQQQQQQQQQQQQQQQHPGKQAKEQQQQQQQQQQLAAQQLVFQQQLLQMQQLQQQQHLLSLQRQGLISIPPGQAALPVQSLPQAGLSPAEIQQLWKEVTGVHSMEDNGIKHGGLDLTTNNSSSTTSSNTSKASPPITHHSIVNGQSSVLSARRDSSSHEETGASHTLYGHGVCKWPGCESICEDFGQFLKHLNNEHALDDRSTAQCRVQMQVVQQLEIQLSKERERLQAMMTHLHMRPSEPKPSPKPLNLVSSVTMSKNMLETSPQSLPQTPTTPTAPVTPITQGPSVITPASVPNVGAIRRRHSDKYNIPMSSEIAPNYEFYKNADVRPPFTYATLIRQAIMESSDRQLTLNEIYSWFTRTFAYFRRNAATWKNAVRHNLSLHKCFVRVENVKGAVWTVDEVEYQKRRSQKITGSPTLVKNIPTSLGYGAALNASLQAALAESSLPLLSNPGLINNASSGLLQAVHEDLNGSLDHIDSNGNSSPGCSPQPHIHSIHVKEEPVIAEDEDCPMSLVTTANHSPELEDDREIEEEPLSEDLE
chain 2: MAELGELKHMVMSFRVSELQVLLGFAGRNKSGRKHELLAKALHLLKSSCAPSVQMKIKELYRRRFPRKTLGPSDLSLLSLPPGTSPVGSPGPLAPIPPTLLAPGTLLGPKREVDMHPPLPQPVHPDVTMKPLPFYEVYGELIRPTTLASTSSQRFEEAHFTFALTPQQVQQILTSREVLPGAKCDYTIQVQLRFCLCETSCPQEDYFPPNLFVKVNGKLCPLPGYLPPTKNGAEPKRPSRPINITPLARLSATVPNTIVVNWSSEFGRNYSLSVYLVRQLTAGTLLQKLRAKGIRNPDHSRALIKEKLTADPDSEVATTSLRVSLMCPLGKMRLTVPCRALTCAHLQSFDAALYLQMNEKKPTWTCPVCDKKAPYESLIIDGLFMEILSSCSDCDEIQFMEDGSWCPMKPKKEASEVCPPPGYGLDGLQYSPVQGGDPSENKKKVEVIDLTIESSSDEEDLPPTKKHCSVTSAAIPALPGSKGVLTSGHQPSSVLRSPAMGTLGGDFLSSLPLHEYPPAFPLGADIQGLDLFSFLQTESQHYGPSVITSLDEQDALGHFFQYRGTPSHFLGPLAPTLGSSHCSATPAPPPGRVSSIVAPGGALREGHGGPLPSGPSLTGCRSDIISLD
B2: luciferase-FOXP2 (wild-type, full-length 1-715) [human] / YFP-PIAS1 (wild-type) [human] (parent complex)
chain 1: B1 chain 1
chain 2: MADSAELKQMVMSLRVSELQVLLGYAGRNKHGRKHELLTKALHLLKAGCSPAVQMKIKELYRRRFPQKIMTPADLSIPNVHSSPMPATLSPSTIPQLTYDGHPASSPLLPVSLLGPKHELELPHLTSALHPVHPDIKLQKLPFYDLLDELIKPTSLASDNSQRFRETCFAFALTPQQVQQISSSMDISGTKCDFTVQVQLRFCLSETSCPQEDHFPPNLCVKVNTKPCSLPGYLPPTKNGVEPKRPSRPINITSLVRLSTTVPNTIVVSWTAEIGRNYSMAVYLVKQLSSTVLLQRLRAKGIRNPDHSRALIKEKLTADPDSEIATTSLRVSLLCPLGKMRLTIPCRALTCSHLQCFDATLYIQMNEKKPTWVCPVCDKKAPYEHLIIDGLFMEILKYCTDCDEIQFKEDGTWAPMRSKKEVQEVSASYNGVDGCLSSTLEHQVASHHQSSNKNKKVEVIDLTIDSSSDEEEEEPSAKRTCPSLSPTSPLNNKGILSLPHQASPVSRTPSLPAVDTSYINTSLIQDYRHPFHMTPMPYDLQGLDFFPFLSGDNQHYNTSLLAAAAAAVSDDQDLLHSSRFFPYTSSQMFLDQLSAGGSTSLPTTNGSSSGSNSSLVSSNSLRESHSHTVTNRSSTDTASIFGIIPDIISLD
B3: luciferase-FOXP2 (wild-type, full-length 1-715) [human] / YFP-PIAS2 [human] (parent complex)
chain 1: B1 chain 1
chain 2: MADFEELRNMVSSFRVSELQVLLGFAGRNKSGRKHDLLMRALHLLKSGCSPAVQIKIRELYRRRYPRTLEGLSDLSTIKSSVFSLDGGSSPVEPDLAVAGIHSLPSTSVTPHSPSSPVGSVLLQDTKPTFEMQQPSPPIPPVHPDVQLKNLPFYDVLDVLIKPTSLVQSSIQRFQEKFFIFALTPQQVREICISRDFLPGGRRDYTVQVQLRLCLAETSCPQEDNYPNSLCIKVNGKLFPLPGYAPPPKNGIEQKRPGRPLNITSLVRLSSAVPNQISISWASEIGKNYSMSVYLVRQLTSAMLLQRLKMKGIRNPDHSRALIKEKLTADPDSEIATTSLRVSLMCPLGKMRLTIPCRAVTCTHLQCFDAALYLQMNEKKPTWICPVCDKKAAYESLILDGLFMEILNDCSDVDEIKFQEDGSWCPMRPKKEAMKVSSQPCTKIESSSVLSKPCSVTVASEASKKKVDVIDLTIESSSDEEEDPPAKRKCIFMSETQSSPTKGVLMYQPSSVRVPSVTSVDPAAIPPSLTDYSVPFHHTPISSMSSDLPGLDFLSLIPVDPQYCPPMFLDSLTSPLTASSTSVTTTSSHESSTHVSSSSSRSETGVITSSGSNIPDIISLD
B4: luciferase-FOXP2 (wild-type, full-length 1-715) [human] / YFP-PIAS4 [human] (parent complex)
chain 1: B1 chain 1
chain 2: MAAELVEAKNMVMSFRVSDLQMLLGFVGRSKSGLKHELVTRALQLVQFDCSPELFKKIKELYETRYAKKNSEPAPQPHRPLDPLTMHSTYDRAGAVPRTPLAGPNIDYPVLYGKYLNGLGRLPAKTLKPEVRLVKLPFFNMLDELLKPTELVPQNNEKLQESPCIFALTPRQVELIRNSRELQPGVKAVQVVLRICYSDTSCPQEDQYPPNIAVKVNHSYCSVPGYYPSNKPGVEPKRPCRPINLTHLMYLSSATNRITVTWGNYGKSYSVALYLVRQLTSSELLQRLKTIGVKHPELCKALVKEKLRLDPDSEIATTGVRVSLICPLVKMRLSVPCRAETCAHLQCFDAVFYLQMNEKKPTWMCPVCDKPAPYDQLIIDGLLSKILSECEDADEIEYLVDGSWCPIRAEKERSCSPQGAILVLGPSDANGLLPAPSVNGSGALGSTGGGGPVGSMENGKPGADVVDLTLDSSSSSEDEEEEEEEEEDEDEEGPRPKRRCPFQKGLVPAC

Variants of: B1
Assay: BRET; control donor est. 0.040; read off a plot

Question: For chain 1 K674R, which response is on record?
Answer: ~0.087 BRET ratio

Variants of: B1
Assay: BRET; HEK293 cells; n = 3; control donor (nuclear-targeted luciferase) est. -0.003; read off a plot

Question: How did the response turn out when chain 1 R553H was run?
Answer: ~0.026 BRET ratio

Variants of: B2
Assay: BRET; control donor est. 0.036; read off a plot

Question: With chain 1 K674R as the variant, how does the response read?
Answer: ~0.11 BRET ratio

Variants of: B2
Assay: BRET; HEK293 cells; n = 3; control donor (nuclear-targeted luciferase) est. 0.000; read off a plot

Question: For chain 1 R553H, which response is on record?
Answer: ~0.014 BRET ratio

Variants of: B3
Assay: BRET; control donor est. 0.030; read off a plot

Question: How did the response turn out when chain 1 K674R was run?
Answer: ~0.047 BRET ratio

Variants of: B3
Assay: BRET; HEK293 cells; n = 3; control donor (nuclear-targeted luciferase) est. -0.008; read off a plot

Question: With chain 1 R553H as the variant, how does the response read?
Answer: ~-0.005 BRET ratio

Variants of: B4
Assay: BRET; HEK293 cells; n = 3; control donor (nuclear-targeted luciferase) est. 0.001; read off a plot

Question: How did the response turn out when chain 1 R553H was run?
Answer: ~-0.006 BRET ratio

Variants of: B4
Assay: BRET; control donor est. 0.026; read off a plot

Question: With chain 1 K674R as the variant, how does the response read?
Answer: ~0.071 BRET ratio
